Tests used:
ΔDII-PfAMA1 = assay: Isothermal Titration Calorimetry, ΔDII-PfAMA1; format: binding, Plasmodium falciparum; conditions: 25°C; ΔDII-PfAMA1 10 μM, PfRON2D3-TRX 110 μM; 20 mM Hepes pH 7.5, 150 mM NaCl; average of two experiments with standard deviation; read-out: ITC Kd
Experimental: (§1) Purified PfAMA1, ΔDII-PfAMA1, and PfRON2D3-TRX were dialyzed against ITC buffer (20 mM Hepes pH 7.5, 150 mM NaCl) at 4°C. All ITC experiments were carried out at 25°C on a MicroCal iTC200 instrument. The sample cell contained PfAMA1 or ΔDII-PfAMA1 (10 μM), and PfRON2D3-TRX (110 μM) was added in 17 injections of 2.2 μL each. […] Data were processed using Origin software (MicroCal) and the dissociation constants (Kd) were determined using a one binding site model.

PfAMA1 [1] = conditions: Room temp; ref [23]; read-out: SPR Kd; cited from earlier work
Description: Table 2 Comparison of equilibrium dissociation constants (Kd) of complexes. | column: SPRKd (nM) / Room temp

PfAMA1 [2] = molecular target: T1, PfAMA1 (Plasmodium falciparum, UniProt Q7KQK5); assay: Isothermal Titration Calorimetry, PfAMA1; format: binding; conditions: ITC, 25°C; which AMA1 construct not stated
T1 construct: (residues 104–438); hexa-histidine (cleaved yes); made in house; host or cells: insect cells (modified pAcGP67B vector)
T1 sequence (Q7KQK5 104-438): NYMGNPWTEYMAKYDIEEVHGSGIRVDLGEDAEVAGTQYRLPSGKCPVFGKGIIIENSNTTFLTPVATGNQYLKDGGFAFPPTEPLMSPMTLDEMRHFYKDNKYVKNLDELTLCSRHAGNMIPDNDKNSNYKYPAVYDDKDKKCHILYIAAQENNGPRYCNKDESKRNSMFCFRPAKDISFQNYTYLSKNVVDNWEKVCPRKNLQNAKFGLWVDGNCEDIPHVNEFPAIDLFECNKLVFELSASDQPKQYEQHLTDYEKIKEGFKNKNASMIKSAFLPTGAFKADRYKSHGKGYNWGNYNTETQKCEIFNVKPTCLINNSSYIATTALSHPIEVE
Experimental: as §1

[3] = molecular target: T2, F*PfRON2sp1 (39 aa) [2021-2059], fluorescein-labeled PfRON2sp1 peptide (Plasmodium falciparum, 5-FAM (5-carboxyfluorescein) on the N-terminus; disulfide cyclized at the two cysteine residues); assay: fluorescence polarisation; anisotropy kinetics at 25°C; association: 10 nM labeled probe with 50, 100, 200 nM protein; dissociation: 10 nM preformed complex challenged with 2500 or 5000 nM unlabeled PfRON2sp1; global fit to a one-intermediate model; PBS pH 7.4, at least 0.1% BSA; conditions: both partners purified
T2 construct: Rhoptry Neck Protein 2 (RON2) of Plasmodium falciparum, residues 2021-2059; also called labeled peptide; labeled probe; source: synthetic peptide, bought: Kinexus (purity ≥ 95%)
T2 peptide: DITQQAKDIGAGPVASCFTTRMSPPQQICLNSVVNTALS

[4] = molecular target: T2, F*PfRON2sp1 (39 aa) [2021-2059], …; assay: fluorescence polarisation; anisotropy kinetics at 20°C; association: 10 nM labeled probe with 50, 100, 200 nM protein; dissociation: 10 nM preformed complex challenged with 2500 or 5000 nM unlabeled PfRON2sp1; global fit to a one-intermediate model; PBS pH 7.4, at least 0.1% BSA; conditions: both partners purified
[5] = molecular target: T2, F*PfRON2sp1 (39 aa) [2021-2059], …; assay: fluorescence polarisation; anisotropy kinetics at 25°C; association: 10 nM labeled probe with 50, 100, 200 nM protein; dissociation: 10 nM preformed complex challenged with 2500 or 5000 nM unlabeled PfRON2sp1; global fit to a one-intermediate model; PBS pH 7.4, at least 0.1% BSA; conditions: both partners purified
[6] = molecular target: T2, F*PfRON2sp1 (39 aa) [2021-2059], …; assay: fluorescence polarisation; anisotropy kinetics at 30°C; association: 10 nM labeled probe with 50, 100, 200 nM protein; dissociation: 10 nM preformed complex challenged with 2500 or 5000 nM unlabeled PfRON2sp1; global fit to a one-intermediate model; PBS pH 7.4, at least 0.1% BSA; conditions: both partners purified
[7] = molecular target: T2, F*PfRON2sp1 (39 aa) [2021-2059], …; assay: fluorescence polarisation; anisotropy kinetics at 25°C; association: 10 nM labeled probe with 50, 100, 200 nM protein; dissociation: 10 nM preformed complex challenged with 2500 or 5000 nM unlabeled PfRON2sp1; global fit to a one-intermediate model; PBS pH 7.4, at least 0.1% BSA; conditions: both partners purified

PfRON2D3: thioredoxin fusion of PfRON2D3 (Asp2021 to Ser2059) produced in E. coli BL21 cells
Kd (ΔDII-PfAMA1): 92.6 ± 6.4 nM
Kd (PfAMA1 [1]): 20.3 ± 6.3 nM

TRX: thioredoxin, injected as a negative control in ITC
binding of TRX negative control (PfAMA1 [2]): no detectable binding

B1: PfAMA1 (DI-DII of Plasmodium falciparum Apical Membrane Antigen 1, 3D7, residues 104-438) (domain or fragment)
chain: NYMGNPWTEYMAKYDIEEVHGSGIRVDLGEDAEVAGTQYRLPSGKCPVFGKGIIIENSNTTFLTPVATGNQYLKDGGFAFPPTEPLMSPMTLDEMRHFYKDNKYVKNLDELTLCSRHAGNMIPDNDKNSNYKYPAVYDDKDKKCHILYIAAQENNGPRYCNKDESKRNSMFCFRPAKDISFQNYTYLSKNVVDNWEKVCPRKNLQNAKFGLWVDGNCEDIPHVNEFPAIDLFECNKLVFELSASDQPKQYEQHLTDYEKIKEGFKNKNASMIKSAFLPTGAFKADRYKSHGKGYNWGNYNTETQKCEIFNVKPTCLINNSSYIATTALSHPIEVE
notes: codon-optimized synthetic gene; also called native PfAMA1; PfAMA1 DI-DII construct
dH of step 1 (formation of the intermediate) [3]: -0.67 kcal/mol
complex half-life (calculated from the one-intermediate model) [4]: 28.8 min
complex half-life (experimental) [4]: 27.3 min
complex half-life (calculated from the one-intermediate model) [5]: 16 min
complex half-life (experimental) [5]: 15 min
complex half-life (calculated from the one-intermediate model) [6]: 9.07 min
complex half-life (experimental) [6]: 9.23 min
dH (overall, summation of the transition states from the kinetic fit) [7]: -11.6 kcal/mol
